First the molecules themselves.
B1: Stx2-D10 (VHH)
VHH: TGGLVQAGGSLRLSCAASGVPFSDYTMAWFRQAPGKEREVVARITWRGGGPYYGNSGNGRFAISRDIAKSMVYLHMDSLKPEDTAVYYCAASRLRPALASMASDYDYWGQGTQVSVSS
B2: Stx-A5 (VHH)
VHH: SGGGLVQPGGSLRLSCAALEFTLEDYAIAWFRQAPGKEREGVSCISKSGVTKYTDSVKGRFTVARDNAKSTVILQMNNLRPEDTAVYNCAAVRPVFVDSVCTLATRYTYWGEGTQVTVSS
B3: scFv#7 (scFv)
scFv: SYELTQPPSMSVALGQTAKVTCQGDNLENFYVQWHQQKPGQAPVTVIFQDNKRPSGIPDRFSGSNSGNTATLTISGARTEDEADYYCQSGHSSIGGVFGSGTSLTVLGQPAAAGGGGSGGGGSGGGGSARQVQLQESGPSLVKPSQTLSLTCTVSGFSLTGNSVTWVRQAPGNVPEWLGGISRGGRTYYDTALKSRLSITRDTSKRQVSLSLSSVTTEDTAMYFCARSAYSTLYDYEYAADIYDWGPGLLVTVSSTSGAPVPYPDPLEPRAA
B4: VNA-TcdA (toxin A binding heterodimer, AH3+AA6) (bispecific antibody)
chain: QGVQSQLQLVESGGGLVQPGGSLRLSCAASGFTLDYSSIGWFRQAPGKEREGVSCISSSGDSTKYADSVKGRFTTSRDNAKNTVYLQMNSLKPDDTAVYYCAAFRATMCGVFPLSPYGKDDWGKGTLVTVSSEPKTPKPQGGGGSGGGGSGGGGSQGVQSQVQLVESGGGLVQPGGSLRLSCAASGFTFSDYVMTWVRQAPGKGPEWIATINTDGSTMRDDSTKGRFTISRDNAKNTLYLQMTSLKPEDTALYYCARGRVISASAIRGAVRGPGTQVTVSSEPKTPKPQ
B5: JHD-B6 (VHH)
VHH: QVQLVESGGGLVQPGGSLRLSCAASGSSFSRYAMRWYRQAPGKQRELVANINSRGTSNYADSVKGRFTISRDNAKNTVYLQMNSLKPEDTAVYYCNAEWLGRSEPSWGQGTQVTVSS
B6: JIJ-C11 (VHH)
VHH: QVQLVETGGGLVQPGGSLGLSCVVASGRSINNYGMGWYRQAPGKQRELVAQISSGGTTNYAGSVEGRFTISRDNVKKMVYLQMNSLKPEDTAVYYCNSLLRTFSWGQGTQVTVSS
B7: JIK-B8 (VHH)
VHH: B6 VHH with T7S, G27E, G62D, Y80H, M83V
B8: JIJ-E9 (VHH)
VHH: QVQLVETGGLVQPGGSLRLSCAASRSTTATIYSMNWYRQAPGKQRELVAGMTSDGQTNYATSVKGRFTISRDNAKNTVYLLMNSLKLEDTAVYYCYVKPWRLQGWDYWGQGTQVTVSS
B9: JIJ-D3 (VHH)
VHH: QVQLVETGGLVQPGGSLRLSCAASGLTFSSTAMAWFRQAPGKEREFVARISGAGITIYYSDSVKDRFTISRNNVENTVYLQMNSLKTEDTAVYYCAARRNTYTSDYNIPARYPYWGQGTQVTVSS
B10: JIJ-B8 (VHH)
VHH: QVQLVESGGGLVQPGGSLSVSCAASGSIARPGAMAWYRQAPGKERELVASITPGGLTNYADSVTGRFTISRDNAKRTVYLQMNSLQPEDTAVYYCHARIIPLGLGSEYRDHWGQGTQVTVSS
B11: JIK-B10 (VHH)
VHH: QVQLVETGGGLVQPGGSLRLSCAASGFTFSSYRMSWYRQAAGKERDVVATITANGVPTGYADSVMGRFTISRDNAKNTVYLEMNSLNPEDTAVYYCNAPRLHTSVGYWGQGTQVTVSS
B12: JIJ-A12 (VHH)
VHH: QVQLVESGGGLVQPGGSLRLSCAASGIIFSIYTMGWYRQAPGKQRELVAAIPSGPSANATDSVGGRFTITRDNAENTVYLQMNDLKPEDTAVYYCNARRGPGIKNYWGQGTQVTVSS
B13: JIJ-F11 (VHH)
VHH: QVQLVESGGGLVQPGGSLRLSCAAPESIVNSRTMAWYRQAPGKQRERVATITTAGSPNYADSVKGRFAISRDNAKNTVYLQMNSLKPEDTAVYYCNTLLSTLPYGQGTQVTVSS
B14: JIK-F4 (VHH)
VHH: TGGGLVQAGGSLRLSCAASGRYAMGWFRQAPGKEREFVATISRSGAIREYADSVKGRFTISRDGAENTVYLEMNSLKPDDTAIYVCAEGRGATFNPEYAYWGQGTQVTVSS
B15: JHE-D9 (VHH)
VHH: QVQLVESGGGLVQPGGSLRLSCAASGFIFSLYTMRWHRQAPGKERELVATITSATGITNYADSVKGRFIISRDDAKKTGYLQMNSLKPEDTAVYYCNAVRTTVSRDYWGQGTQVTVSS
B16: JIK-B12 (VHH)
VHH: QVQLVESGGGLVQAGNSLRLSCTASGVIFSIYTMGWFRQAPGKEREFVAAIGVADGTALVADSVTGRFTISRDNAKNTVYLHMNSLKPEDTAVYSCAAYLSPRVQSPYITDSRYQLWGQGTQVTVSS
B17: Stx2-G1 (VHH)
VHH: SGGGLVQPGESLRLSCVASASTFSTSLMGWVRQAPGKGLESVAEVRTTGGTFYAKSVAGRFTISRDNAKNTLYLQMNSLKAEDTGVYYCTAGAGPIATRYRGQGTQVTVSS
B18: Stx-A4 (VHH)
VHH: SGGGLVQPGGSLRLSCAASGFTLGSYHIGWFRHPPGKEREGTSCLSSRGDYTKYAEAVKGRFTISRDNTKSTVYLQMNNLKPEDTGIYVCAAIRPVLSDSHCTLAARYNYWGQGTQVTVSS
B19: JDQ-F9 (VHH)
VHH: QVQLVESGGGLVQDGGSLRLSCTTSGSIDSFNAIEWYRQAPGKQRELVASISSDGRRTNYADSVKGRFTISGDNAKNTVYLQMNSLKPEDTAVYYCHRPFTHYWGQGTQVTVSS
B20: JDO-E9 (VHH)
VHH: QVQLVESGGGLVRPGGSLRLSCVVSGFAYEMPMMGWYRQAPGNQRELVATIGTGGRMNYADSVKGRFTISRDNAKNTVYLQMNSLKPEDTAAYYCKIEFTNYWGQGTQVTVSS
B21: JDQ-B2 (VHH)
VHH: QVQLVESGGGLVQPGGSLRLSCTVSGSIFDLPGMNWYRQAPGAQRELVADISSDGRRTNYADSVKGRFTMSRDNAKKTVYLQMDSLKPDDTAVYYCNVKFTHHWGQGIQVTVSS
B22: JDQ-C5 (VHH)
VHH: B21 VHH with D30G, N35S, R56G, N59H, M70I, A75D

Where a chain is given by its changes, count along the chain named.

The first assay deals with T1, Shiga-like toxin 2 (Stx2) (UniProt P09385 23-319; P09386 20-89).
T1 sequence 1: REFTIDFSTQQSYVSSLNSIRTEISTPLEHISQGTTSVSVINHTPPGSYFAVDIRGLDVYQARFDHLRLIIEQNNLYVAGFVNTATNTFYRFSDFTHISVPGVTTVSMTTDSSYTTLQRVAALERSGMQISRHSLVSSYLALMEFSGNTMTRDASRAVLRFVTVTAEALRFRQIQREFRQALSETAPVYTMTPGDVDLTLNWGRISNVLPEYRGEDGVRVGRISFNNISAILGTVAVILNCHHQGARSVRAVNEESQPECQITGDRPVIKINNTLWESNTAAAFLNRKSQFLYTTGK
T1 sequence 2: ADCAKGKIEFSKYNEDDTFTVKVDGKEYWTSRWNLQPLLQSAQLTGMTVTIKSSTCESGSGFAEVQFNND
Experiment: not given
As to B1, the “EC50 (read off the curve)” value is approximately 0.3 nM.
Take B2: the “EC50 (read off the curve)” value was approximately 0.8 nM.

In a further assay the target is T2, Botulinum neurotoxin serotype A1 (BoNT/A) holotoxin (Clostridium botulinum, UniProt P0DPI0 2-1296).
T2 construct: mature
Briefly: method not stated.
On to B3, for which the Kd was approximately 1 nM.

A further assay deals with T3, Clostridium difficile toxin A (TcdA) (Clostridium difficile, UniProt P16154 1-2710).
T3 construct: mature
T3 sequence (P16154 whole entry): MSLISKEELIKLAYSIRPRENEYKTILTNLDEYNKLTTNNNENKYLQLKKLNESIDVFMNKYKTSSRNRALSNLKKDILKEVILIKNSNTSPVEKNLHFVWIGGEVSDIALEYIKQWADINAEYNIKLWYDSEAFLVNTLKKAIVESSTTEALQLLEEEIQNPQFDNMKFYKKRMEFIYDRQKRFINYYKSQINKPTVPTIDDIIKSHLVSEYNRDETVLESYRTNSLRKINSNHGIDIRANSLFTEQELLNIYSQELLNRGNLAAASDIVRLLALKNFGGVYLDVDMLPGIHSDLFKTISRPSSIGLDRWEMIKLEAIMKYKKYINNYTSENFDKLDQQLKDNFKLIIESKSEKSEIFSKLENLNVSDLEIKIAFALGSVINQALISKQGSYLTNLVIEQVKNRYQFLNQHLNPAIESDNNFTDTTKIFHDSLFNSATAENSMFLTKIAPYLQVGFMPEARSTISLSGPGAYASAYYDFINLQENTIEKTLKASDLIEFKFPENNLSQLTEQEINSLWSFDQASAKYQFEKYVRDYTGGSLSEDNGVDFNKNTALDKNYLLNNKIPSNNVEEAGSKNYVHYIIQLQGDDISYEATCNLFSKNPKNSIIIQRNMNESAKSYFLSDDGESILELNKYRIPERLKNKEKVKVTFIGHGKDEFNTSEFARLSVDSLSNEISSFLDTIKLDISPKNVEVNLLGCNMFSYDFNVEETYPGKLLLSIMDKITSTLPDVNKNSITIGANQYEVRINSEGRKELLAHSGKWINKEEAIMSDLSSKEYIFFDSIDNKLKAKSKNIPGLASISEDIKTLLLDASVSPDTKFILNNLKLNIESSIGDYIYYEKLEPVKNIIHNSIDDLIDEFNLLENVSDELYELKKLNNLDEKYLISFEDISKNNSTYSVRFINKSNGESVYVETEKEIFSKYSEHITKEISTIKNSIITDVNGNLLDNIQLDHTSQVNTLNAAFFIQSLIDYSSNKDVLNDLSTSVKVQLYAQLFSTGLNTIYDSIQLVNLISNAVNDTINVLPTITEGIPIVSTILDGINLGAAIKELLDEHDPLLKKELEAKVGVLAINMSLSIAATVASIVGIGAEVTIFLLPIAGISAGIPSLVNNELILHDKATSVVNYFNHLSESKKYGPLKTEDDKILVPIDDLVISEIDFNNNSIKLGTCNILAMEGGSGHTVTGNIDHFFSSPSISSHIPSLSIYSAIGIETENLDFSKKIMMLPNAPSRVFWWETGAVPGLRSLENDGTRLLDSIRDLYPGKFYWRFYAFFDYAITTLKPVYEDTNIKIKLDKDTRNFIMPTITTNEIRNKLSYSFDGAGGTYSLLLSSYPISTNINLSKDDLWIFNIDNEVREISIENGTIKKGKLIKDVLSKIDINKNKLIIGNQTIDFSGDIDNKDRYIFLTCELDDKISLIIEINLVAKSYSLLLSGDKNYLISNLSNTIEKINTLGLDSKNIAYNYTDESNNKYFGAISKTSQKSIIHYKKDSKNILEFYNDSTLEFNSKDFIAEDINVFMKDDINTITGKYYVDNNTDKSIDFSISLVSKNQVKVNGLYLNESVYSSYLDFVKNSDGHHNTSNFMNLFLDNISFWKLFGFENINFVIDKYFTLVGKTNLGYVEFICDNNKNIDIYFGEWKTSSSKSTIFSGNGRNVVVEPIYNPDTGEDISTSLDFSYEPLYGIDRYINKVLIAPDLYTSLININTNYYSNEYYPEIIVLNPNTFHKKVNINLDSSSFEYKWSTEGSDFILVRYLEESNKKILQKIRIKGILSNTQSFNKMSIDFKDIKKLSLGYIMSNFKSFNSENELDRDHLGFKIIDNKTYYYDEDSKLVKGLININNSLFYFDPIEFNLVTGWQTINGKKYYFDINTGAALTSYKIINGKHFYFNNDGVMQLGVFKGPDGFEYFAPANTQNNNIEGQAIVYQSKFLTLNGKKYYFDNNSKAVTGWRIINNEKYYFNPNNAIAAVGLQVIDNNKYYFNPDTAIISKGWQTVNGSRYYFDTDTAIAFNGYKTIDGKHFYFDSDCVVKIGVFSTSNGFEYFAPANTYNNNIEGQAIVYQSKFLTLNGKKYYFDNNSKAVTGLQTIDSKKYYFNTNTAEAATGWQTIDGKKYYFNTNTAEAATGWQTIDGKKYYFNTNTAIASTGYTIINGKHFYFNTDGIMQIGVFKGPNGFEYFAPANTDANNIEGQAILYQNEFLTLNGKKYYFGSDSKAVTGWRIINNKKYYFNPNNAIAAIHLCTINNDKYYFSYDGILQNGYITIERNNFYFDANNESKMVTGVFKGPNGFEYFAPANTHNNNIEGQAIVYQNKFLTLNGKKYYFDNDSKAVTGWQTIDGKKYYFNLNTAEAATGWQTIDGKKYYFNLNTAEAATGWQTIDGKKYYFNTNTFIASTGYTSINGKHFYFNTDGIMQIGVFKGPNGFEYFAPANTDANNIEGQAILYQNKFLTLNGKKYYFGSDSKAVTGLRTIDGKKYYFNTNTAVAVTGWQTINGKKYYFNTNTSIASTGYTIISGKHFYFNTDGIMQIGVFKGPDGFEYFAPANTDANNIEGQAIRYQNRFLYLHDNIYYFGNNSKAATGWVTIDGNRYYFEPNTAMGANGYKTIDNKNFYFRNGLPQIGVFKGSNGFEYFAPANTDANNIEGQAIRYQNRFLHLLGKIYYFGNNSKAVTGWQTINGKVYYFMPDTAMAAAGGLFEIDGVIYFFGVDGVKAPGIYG
Briefly: ELISA on plates coated with TcdA, HRP-conjugated detection antibody, A450.
In the case of B4, the “EC50 (read off the curve)” value was approximately 2 nM.

The target in another assay is anthrax protective antigen (PA) (Bacillus anthracis, UniProt P13423 30-764). Briefly: legend of FIG. 29A: VHHs identified that bind each target as indicated.
Chain of anthrax protective antigen (PA) (P13423 30-764 limits assumed): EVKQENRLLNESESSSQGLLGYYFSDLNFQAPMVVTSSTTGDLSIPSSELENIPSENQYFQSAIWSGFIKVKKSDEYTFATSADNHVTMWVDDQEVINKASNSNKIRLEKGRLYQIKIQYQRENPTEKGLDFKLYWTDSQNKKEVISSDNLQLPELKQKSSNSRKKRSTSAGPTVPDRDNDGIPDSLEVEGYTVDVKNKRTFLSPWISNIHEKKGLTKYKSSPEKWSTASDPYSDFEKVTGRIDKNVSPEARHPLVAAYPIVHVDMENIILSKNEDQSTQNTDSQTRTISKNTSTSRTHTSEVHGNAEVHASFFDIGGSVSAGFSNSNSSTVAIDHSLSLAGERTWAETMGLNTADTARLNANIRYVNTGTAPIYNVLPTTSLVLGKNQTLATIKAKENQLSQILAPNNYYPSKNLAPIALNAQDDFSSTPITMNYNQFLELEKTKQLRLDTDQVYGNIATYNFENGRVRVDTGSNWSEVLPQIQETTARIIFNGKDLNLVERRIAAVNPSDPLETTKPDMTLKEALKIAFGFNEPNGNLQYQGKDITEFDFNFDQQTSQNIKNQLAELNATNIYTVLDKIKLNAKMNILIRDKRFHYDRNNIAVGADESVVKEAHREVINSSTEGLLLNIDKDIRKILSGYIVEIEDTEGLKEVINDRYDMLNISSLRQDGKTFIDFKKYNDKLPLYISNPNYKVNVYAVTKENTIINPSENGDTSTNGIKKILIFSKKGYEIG
As to B5, the binding result was “binds”.
Take B6: the binding result was “binds”.
Same read-out and setting: the result for B7 reads “binds”.
The same measure, in the same setting: for B8 the value was “binds”; for B9, “binds”; for B10, “binds”.
On the same count and under the same terms, the result for B11 reads “binds”; that for B12, “binds”; that for B13, “binds”.
As for B14, the binding result is listed as “binds”.
Still for that read-out and setting: the result for B15 reads “binds”.
On to B16, for which the binding result is listed as “binds”.

A further assay addresses T1, Shiga-like toxin 2 (Stx2).
Experiment: not given
This is another data set of the same source.
For the molecule B17, the “EC50 (read off the curve)” value was approximately 0.1 nM.
For the molecule B2, the 50% effective concentration (EC50 (read off the curve)) was approximately 0.8 nM.

For another assay, the target named is T4, Clostridium difficile toxin B (TcdB) (Clostridium difficile, UniProt P18177 2-2366).
T4 construct: mature
The assay is described as follows: ELISA, toxin-coated plates, HRP-conjugated detection antibody.
For B4, the binding result is given as “no binding (tested: up to 125 nM)”.

Another assay concerns the target T1, Shiga-like toxin 2 (Stx2).
Experiment: not given
The source holds these as a separate data set.
Consider B17, for which the “EC50 (read off the curve)” value is approximately 0.1 nM.
In the case of B1, the “EC50 (read off the curve)” value was approximately 0.3 nM.

The target in another assay is T1, Shiga-like toxin 2 (Stx2).
Experiment: not given
This is another data set of the same source.
As for B18, the “EC50 (read off the curve)” value is approximately 8 nM.
Same read-out and setting: the result for B2 reads approximately 0.8 nM.

The next assay deals with T2, Botulinum neurotoxin serotype A1 …. Briefly: VHH selection; binding competition.
In the case of B19, the binding result is “binds”.
On the same count and under the same terms, for B20 the value was “binds”; for B21, “binds”; for B22, “binds”.

For the origin of these results see patent publication US20190225675A1 (TUFTS UNIVERSITY, published 2019).
